50 molecules from patent publication US20230348540A1 (UNIVERSITY OF COPENHAGEN, published 2023) can be followed below.

Ends that are not written are not given here. * marks the point of attachment. Biotin = O=C1N[C@H]2[C@H](CS[C@H]2CCCCC(=O)*)N1; Ahx = NCCCCCC(=O)O

Assay [1] addresses T1, PSD-95 protein in mouse spinal cord lysate (mouse, UniProt Q62108 1-724, limits assumed).
T1 construct: Endogenous protein, detected by Western blot after pull-down
Description: pull-down with biotinylated peptide on streptavidin beads from mouse spinal cord lysate, western blot [D].

Assay [2] concerns the target T2, nNOS protein in mouse spinal cord lysate (mouse, UniProt Q9Z0J4 1-1429, limits assumed).
T2 construct: Endogenous protein, detected by Western blot after pull-down
The assay is described as above.

Assay [3] concerns the target T3, PICK1 protein in mouse spinal cord lysate (mouse, UniProt Q62083 1-416).
T3 construct: Endogenous protein, detected by Western blot after pull-down
Described as above.

In assay [4] the target is T4, Full length rat PICK1 (Protein Interacting with C Kinase-1) (rat, UniProt Q9EP80 1-416).
T4 construct: mature; Residues left by the cleaved tag are not described; also called purified PICK1
Description: FP competition (FIG. 17C).

The target of assay [5] is T5, TRX-6xHis-hPSD95 1-724 (full length human PSD-95) (human, UniProt P78352 1-724, Alexa488 label in the confocal experiment of Example 5 only).
T5 construct: range 1-724; Purified by HisTrap and SEC; also called FL-PSD-95; not shown: TRX-6xHis tag encoded by the pET-MG-3C plasmid
Description: SDS-PAGE sedimentation assay.

Assay [6] deals with T4, Full length rat PICK1 (Protein …). Briefly: FP competition, tracer 5-FAM-(HWLKV)2 10 nM, PICK1 (Example 8). The protocol:
The plates were incubated 30-40 min on ice and the fluorescence polarization was measured on an Omega POLARstar plate (BMG LABTECH) reader using excitation filter at 485 nm and long pass emission filter at 520 nm. The data was plotted using GraphPad Prism 8.3, and fitted to the ‘One site—Fit’ Kᵢ competition curve, to extract apparent KI values.

Assay [7] has the same target. Description: FP competition on purified PICK1, tracer 5FAM-HWLKV 20 nM; fold change against HWLKV [panel 5 from the left].
The target is the same in assay [8]. Description: FP competition on purified PICK1, tracer 5FAM-HWLKV 20 nM; fold change against HWLKV [panel 4 from the left].
For another assay, the target named is T6, PSD-95 PDZ1-2 (UniProt P78352 61-249, limits assumed).
T6 construct: domain: PDZ1-2
Description: FP competition, tracer 5-FAM-(IETAV)2 5 nM, PSD-95 PDZ12 0.15 µM. The text has this:
FIG. 18: Fluorescence polarization competition binding curves for the unlabelled peptides. […] Data expressed as mean±SEM (n=3).
The data was plotted using GraphPad Prism 8.3, and fitted to the ‘One site—Fit’ Kᵢ competition curve, to extract apparent KI values.

Assay [9] addresses T4, Full length rat PICK1 (Protein …). Briefly: FP competition on purified PICK1, tracer 5FAM-HWLKV 20 nM; fold change against HWLKV [panel 1 from the left].
Assay [10] shares this target. Briefly: FP competition on purified PICK1, tracer 5FAM-HWLKV 20 nM; fold change against HWLKV [panel 3 from the left].
For assay [11] the target is unchanged. Description: FP competition on purified PICK1, tracer 5FAM-HWLKV 20 nM; fold change against HWLKV [panel 2 from the left].

B1: GCN4p1-GS4-GS4 (non-binding control peptide) (peptide)
peptide: not shown
modifications: N-terminal biotin joined through 6-aminohexanoic acid (Ahx)
notes: also called biotin-Ahx-GCN4p1-GS4-GS4; biotin-Ahx-GCN4p1-GS-GS
For the molecule B1, the binding result in [1], in assay [2] and in [3] was “no binding” in each case.
For {Biotin-Ahx}-GEIAKSLKEIAKSLKEIAWSLKEIAKSLKGGGGSNSVRV [CC-Hex2-GS4-NSVRV], the binding result in [4] is recorded as “binds”.
In the case of SNTANRRTTPV (also called Stg; RRTTPV monomer), the binding result in assay [5] is recorded as “binds”.
In assay [6], {Biotin-Ahx}-GEIAKSLKEIAKSLKEIAWSLKEIAKSLKGGGGSHWLKV (also called CC-hex-GS4-HWLKV) [CC-Hex2-GS4-HWLKV] showed an inhibition constant (Ki) of 22.9 nM.
Take EVIV (also called DAT-C5 variant): the binding result in [7] was “binds”.
On to EIRV (also called DAT-C5 variant), for which the binding result in assay [7] is given as “binds”.
Turning to YVRV (also called DAT-C5 variant), in assay [7], the binding result is reported as “binds”.
With YIRV (also called DAT-C5 variant), the binding result in assay [7] was “binds”.
As for SVIV (also called DAT-C5 variant), in [8], the binding result was “binds”.
With EVRV (also called DAT-C5 variant), in assay [7], the binding result is listed as “binds”.
As to SVRV (also called DAT-C5 variant), in [8], the binding result was “binds”.
As for YVIV (also called DAT-C5 variant), the binding result in assay [7] was “binds”.
EIIV (also called DAT-C5 variant): the binding result in assay [8] was “binds”.
As for SIIV (also called DAT-C5 variant), in assay [8], the binding result is “binds”.
As for YIIV (also called DAT-C5 variant), the binding result in assay [7] is reported as “binds”.
With {Biotin-Ahx}-GEIAKSLKEIAKSLKEIAWSLKEIAKSLKGGGGSRRTTPV [CC-Hex2-GS4-RRTTPV], the Ki in the assay with PSD-95 PDZ1-2 was 242 nM.
With NYIRV (also called DAT-C5 variant), in assay [9], the binding result was “binds”.
As for FSIIV (also called DAT-C5 variant), in [10], the binding result is reported as “binds”.
Consider NEVRV (also called DAT-C5 variant), for which, in [9], the binding result is reported as “binds”.
Regarding NYVRV (also called DAT-C5 variant), the binding result in assay [11] is reported as “binds”.
NYIIV (also called DAT-C5 variant): the binding result in assay [9] was “binds”.
For NYVIV (also called DAT-C5 variant), the binding result in assay [11] is reported as “binds”.
Take TEVRV (also called DAT-C5 variant): the binding result in assay [11] was “binds”.
Regarding FYVRV (also called DAT-C5 variant), in assay [8], the binding result is “binds”.
Regarding TSIRV (also called DAT-C5 variant), the binding result in assay [11] was “binds”.
On to TEIRV (also called DAT-C5 variant), for which the binding result in assay [11] is recorded as “binds”.
Turning to FSIRV (also called DAT-C5 variant), the binding result in [10] is given as “binds”.
On to FYIIV (also called DAT-C5 variant), for which, in assay [8], the binding result was “binds”.
Take TSIIV (also called DAT-C5 variant): the binding result in assay [11] is reported as “binds”.
On to NSIRV (also called DAT-C5 variant), for which the binding result in [9] is “binds”.
Regarding FEIIV (also called DAT-C5 variant), the binding result in [10] is listed as “binds”.
Take FYIRV (also called DAT-C5 variant): the binding result in [8] is on record as “binds”.
Regarding TSVIV (also called DAT-C5 variant), in assay [11], the binding result was “binds”.
Turning to TYIRV (also called DAT-C5 variant), in [10], the binding result is “binds”.
With NSVRV (also called DAT-C5 variant), the binding result in [9] is recorded as “binds”.
Consider FEVRV (also called DAT-C5 variant), for which the binding result in [8] was “binds”.
Regarding FSVRV (also called DAT-C5 variant), the binding result in [10] is recorded as “binds”.
As for TEVIV (also called DAT-C5 variant), in assay [11], the binding result is “binds”.
On to NSIIV (also called DAT-C5 variant), for which the binding result in [9] is “binds”.
In the case of NEIRV (also called DAT-C5 variant), in assay [9], the binding result was “binds”.
On the same count and under the same terms, the value for NSVIV (also called DAT-C5 variant) was “binds”.
As to FEVIV (also called DAT-C5 variant), in assay [8], the binding result was “binds”.
Turning to TYVIV (also called DAT-C5 variant), in assay [10], the binding result is listed as “binds”.
In the case of FYVIV (also called DAT-C5 variant), the binding result in [8] is reported as “binds”.
As to TYVRV (also called DAT-C5 variant), the binding result in [10] was “binds”.
For TYIIV (also called DAT-C5 variant), the binding result in assay [10] is reported as “binds”.
Regarding FEIRV (also called DAT-C5 variant), in assay [10], the binding result is reported as “binds”.
In the case of NEIIV (also called DAT-C5 variant), in [9], the binding result was “binds”.
Consider {Biotin-Ahx}-GELAAIKQELAAIKKELAAIKWELAAIKQGGGGSHWLKV (also called CC-tet2-GS4-HWLKV) [CC-Tet-GS4-HWLKV], for which the affinity in assay [6] corresponds to a Ki of 2.47 nM.
For the molecule {Biotin-Ahx}-GEIAKSLKEIAKSLKEIAWSLKEIAKSLKGGGGSIETDV [CC-Hex2-GS4-IETDV], the affinity with PSD-95 PDZ1-2, expressed as Ki, was 56 nM.

The Ki is the dissociation constant of the complex between target and ligand, obtained from inhibition or displacement. Lower therefore signals tighter binding.
